Results taken from patent US20230391872A1 (ANAPTYSBIO, published 2023).

Tests used:
[1] = biological target: T1, cynomolgus monkey BTLA on cells (stably transfected 293c18 clone 1G5); cynomolgus peripheral blood T and B … (cynomolgus monkey, UniProt A0A2K5W7M7 31-289); assay: flow cytometry, AF647-labeled 6G3 IgG4 on cynomolgus monkey peripheral blood CD20+ B cells
T1 construct: whole, on cells; also called cynomolgus monkey BTLA 293c18 cells
T1 sequence: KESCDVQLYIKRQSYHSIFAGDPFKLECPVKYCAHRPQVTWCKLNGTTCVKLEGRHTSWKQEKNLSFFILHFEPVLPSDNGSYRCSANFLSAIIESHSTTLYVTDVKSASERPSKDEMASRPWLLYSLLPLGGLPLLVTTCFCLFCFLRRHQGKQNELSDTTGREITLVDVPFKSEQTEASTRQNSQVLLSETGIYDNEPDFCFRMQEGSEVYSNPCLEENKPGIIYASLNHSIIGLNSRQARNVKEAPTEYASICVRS
Description: Blood was then aliquoted into wells and incubated with the indicated concentrations of 6G3-AF647 (APE13766.02), or APC-Mouse Anti-Human CD272 (BTLA) reference antibody (clone J168-540; BD Biosciences) for minutes at room temperature, in the dark. Following incubation, red blood cells were lysed for minutes by addition of 2.0 ml diluted BD Pharm Lyse lysing solution (BD Biosciences), samples centrifuged at 200×g for 5 minutes, washed in FACS Buffer [Dulbecco's PBS, no calcium, no magnesium (Gibco/ThermoFisher Scientific), 25 mM HEPES, pH 7.2, 0.1% BSA, sodium azide] and fixed in 4% paraformaldehyde (200 μl/sample) for 10 minutes at room temperature. Samples were washed twice in FACS Buffer and analyzed for fluorescence on a NovoCyte Quanteon flow cytometer (ACEA Biosciences, Inc.). Data were analyzed using NovoExpress Software (ACEA Biosciences, Inc.). Mean fluorescence intensity (MFI) values were graphed and fit with nonlinear regression analyses in GraphPad Prism (GraphPad Software, Inc.). MFI values for each anti-BTLA antibody on total CD3+cells are shown in FIG. 5A; MFI values for each anti-BTLA antibody on total CD20+cells are shown in FIG. 5B. […] Binding of each anti-BTLA antibody to CD3⁻ cells in FIG. 5C and FIG. 5D (green cells in the bottom quadrants of each panel) reflects the binding to CD20⁺ B cells. […]

[2] = biological target: T2, human BTLA ECD-his (monomeric human BTLA-his) (human, UniProt Q7Z6A9 31-157); assay: Kinetic Exclusion Assay (KinExA 3000), solution phase, 6G3 IgG4 APE10840.04 at 100 pM, human BTLA ECD-his titrated
T2 construct: extracellular domain; also called human BTLA extracellular domain
T2 sequence (looked up): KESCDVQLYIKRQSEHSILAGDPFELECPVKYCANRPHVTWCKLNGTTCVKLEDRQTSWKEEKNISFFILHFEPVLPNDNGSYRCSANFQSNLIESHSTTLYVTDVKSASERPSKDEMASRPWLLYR
Description: (§1) Solution-based affinity measurements of 6G3 IgG4 (APE10840.04 (H Chain SEQ ID NO: 144, L Chain SEQ ID NO: 174)) binding to BTLA were determined on a KinExA 3000 (Sapidyne Instruments). Azlactone beads (ThermoFisher Scientific) were coated with human BTLA ECD-his (30 μg/ml) or cynomolgus monkey BTLA ECD-his (20 μg/ml) in 50 mM Na2CO3 for 2 hours at room temperature and blocked with 10 mg/ml BSA. 6G3 IgG4 APE10840.04 concentration was kept constant at 100 pM for binding in both human and cynomolgus monkey BTLA experiments. Human or cynomolgus monkey BTLA ECD-his was added at 25° C. in 2.5-fold dilutions from 1000 nM to 68 fM. Sample sets were equilibrated at 4° C. for 72 hours and brought to room temperature for 6 hours before capturing free antibody with BTLA-coupled Azlactone beads. […] Maximum and background signals were determined on samples with 6G3 only and buffer only, respectively. Data were analyzed using KinExA Pro Software 3.2.6.

[3] = biological target: T3, cynomolgus monkey BTLA ECD-his (monomeric cynomolgus monkey BTLA-his) (cynomolgus monkey, UniProt A0A2K5W7M7 31-157); assay: Kinetic Exclusion Assay (KinExA 3000), solution phase, 6G3 IgG4 APE10840.04 at 100 pM, cynomolgus monkey BTLA ECD-his titrated
T3 construct: extracellular domain; also called cynomolgus monkey BTLA extracellular domain
T3 sequence: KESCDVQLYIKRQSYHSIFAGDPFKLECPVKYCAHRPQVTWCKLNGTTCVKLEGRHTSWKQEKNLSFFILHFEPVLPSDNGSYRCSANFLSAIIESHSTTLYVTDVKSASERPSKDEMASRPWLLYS
Description: as §1

[4] = biological target: T2, human BTLA ECD-his (monomeric human …); assay: SPR (Biacore T200), antibody captured on anti-human IgG chip, monomeric BTLA-his flowed at 60, 20, 6.7 and 2.2 nM, 1:1 binding model, 25 C [upper right panel (Hu BTLA]
Description: Surface plasmon resonance (SPR) analyses were carried out using a Biacore T200 (GE Healthcare Life Sciences). Kinetic constants were determined using a 1:1 binding model in the Biacore T200 Evaluation Software to calculate on- and off-rates (kₐ and kd, respectively), and dissociation constants as a measure of overall affinity (KD). Anti-human IgG (GE Healthcare Life Sciences) was immobilized on a CMS chip using EDC-activated amine coupling chemistry (420 seconds contact at a flow rate of 10 μl/min). Antibodies (APE10585.04 6G3 IgG1 and APE10840.05 6G3 IgG4), each at 0.5 μg/m1) were captured in a 60 second contact with the flow cell using a flow rate of 10 μl/min. Monomeric human BTLA-his or cynomolgus monkey BTLA-his at 60 nM, 20 nM, 6.7 nM and 2.2 nM concentrations was flowed over captured antibody (480 seconds association, 1800 seconds dissociation). Runs were at 25° C. and used buffer containing 10 mM HEPES, pH 7.6, 150 mM NaCl, 3 mM EDTA, 0.05% polysorbate 20 (HBS-EP+, pH 7.6; Teknova) for the mobile phase and all dilutions. At the end of each cycle, bound antigen was removed by regeneration with two successive exposures (60 seconds and 90 seconds) to 3 M MgCl2 (30 μl/min). Sensorgrams and binding constants corresponding to the experiment are shown in FIG. 1 (human BTLA) and FIG. 1 (cynomolgus monkey BTLA). Antibody capture levels in resonance units (RU) are listed at the right side of each panel.

- EC50 [1]: ~1.4 nM
- Kd [2]: ~0.41 nM
- Kd [3]: ~1.66 nM
- Kd [4]: 5.35 nM
- koff [4]: 0.0003 s⁻¹
- kon [4]: 56200 M⁻¹ s⁻¹
B1: 6G3 IgG4 anti-BTLA antibody (APE10840 / APE12839 / APE13308) (antibody, V domains shown)
VH: QVQLVQSGAEVKKPGSSVKVSCKASGYVFSTSWMNWVRQAPGQGLEWMGRIYPGDADTNYVGKFKGRVTITADKSTTTAYMELSSLRSEDTAVYFCAKSGTFNFGNYRWYFDVWGKGTTVTVSS
VL: AIQLTQSPSSLSASVGDRVTITCRVSENIYSHLAWYQQKPGKAPKLLIYAATNLALGVPSRFSGSGSGTDYTLTISSLQPEDFATYYCQLFWGPPLTFGGGTKVEIKR
notes: Humanized antibody from a mouse hybridoma, tested as human IgG4 (detected with anti-human kappa); Some assays used labelled lots (DyLight 650, AF647, biotin, DyL488); also called 6G3 antibody; APE10840.03
